Measured values published in patent publication US20230119290A1 (UNIVERSIT T ZU K LN, published 2023).
Each block holds one molecule with its values, some of them ahead of it.

What was measured:
[1] = biological target: sFlt-1 (soluble splice variant of VEGF receptor 1) in human serum (human) (UniProt P17948); assay: adsorption of sFlt-1 from preeclampsia patient serum on agarose column, sFlt-1 ELISA before and after
[2] = biological target: sFlt-1 (soluble splice variant of VEGF receptor 1) in human serum (human) (UniProt P17948); assay: adsorption of sFlt-1 from human serum on ligand column (agarose), sFlt-1 ELISA of flow through
[3] = biological target: sFlt-1 (soluble splice variant of VEGF receptor 1) in human serum (human) (UniProt P17948); assay: single run of serum of 10 preeclampsia patients over scVEGF^165 column, sFlt-1 ELISA before and after
[4] = biological target: sFlt-1 (soluble splice variant of VEGF receptor 1) in human serum (human) (UniProt P17948); assay: cell-based or functional assay
[5] = biological target: T1, VEGF-Trap (chimeric protein of VEGFR-1 domain 2 and VEGFR-2 domain 3 fused to Fc) (UniProt P17948 129-230; P35968 225-327); assay: solid phase ELISA, VEGF/PIGF variant immobilised, VEGF-trap titrated 0.1 to 750 nM, Kd from saturation curve
T1 construct: also called VEGFR1/R2 trap; not shown: Fc segment
Experimental: ELISA style binding assays were performed as described previously (Agarwal et al., 2012). In brief, 10 µg/ml of recombinant VEGF, PIGF and their mutant variants were individually immobilized together with bovine serum albumin (BSA) on 96 well plate (Transparente Immuno Standardmodule, Thermo scientific, Denmark), while matrix loaded only with BSA served as a control. A binding saturation curve was generated by applying increasing concentrations of VEGFR1/R2 trap ranging from 0,1 to 750 nM, followed by detection of the ligand-receptor complex using a horseradish peroxidase (HRP)-conjugated antibody against the mouse Fc domain of VEGFR1/R2 trap. Luminescence was quantified at optical density (OD) 450 nm using a by spectrophotometer (Thermo ScientificMultiskan GO, Finland).

Sequence of sFlt-1 (soluble splice variant of VEGF receptor 1) in human serum (human) (P17948 other isoform, or with tags, fused parts or gaps mutant): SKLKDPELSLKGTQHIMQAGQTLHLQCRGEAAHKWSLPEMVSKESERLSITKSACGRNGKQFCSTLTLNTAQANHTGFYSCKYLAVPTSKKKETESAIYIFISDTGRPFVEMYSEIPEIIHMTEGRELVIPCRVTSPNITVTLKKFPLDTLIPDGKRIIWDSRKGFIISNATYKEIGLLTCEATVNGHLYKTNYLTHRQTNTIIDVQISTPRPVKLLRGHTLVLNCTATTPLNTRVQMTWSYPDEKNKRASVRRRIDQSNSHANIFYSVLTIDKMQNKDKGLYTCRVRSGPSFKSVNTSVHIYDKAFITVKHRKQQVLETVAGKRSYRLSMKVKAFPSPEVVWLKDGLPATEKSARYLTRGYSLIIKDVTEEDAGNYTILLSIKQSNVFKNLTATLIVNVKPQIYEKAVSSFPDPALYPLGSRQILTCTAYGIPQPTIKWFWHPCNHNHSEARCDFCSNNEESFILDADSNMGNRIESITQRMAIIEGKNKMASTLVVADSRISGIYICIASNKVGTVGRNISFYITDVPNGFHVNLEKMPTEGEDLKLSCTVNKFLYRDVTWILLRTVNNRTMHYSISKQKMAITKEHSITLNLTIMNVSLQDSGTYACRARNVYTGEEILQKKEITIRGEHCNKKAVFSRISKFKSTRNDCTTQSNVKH
T1 sequence (P17948 other isoform, or with tags, fused parts or gaps mutant): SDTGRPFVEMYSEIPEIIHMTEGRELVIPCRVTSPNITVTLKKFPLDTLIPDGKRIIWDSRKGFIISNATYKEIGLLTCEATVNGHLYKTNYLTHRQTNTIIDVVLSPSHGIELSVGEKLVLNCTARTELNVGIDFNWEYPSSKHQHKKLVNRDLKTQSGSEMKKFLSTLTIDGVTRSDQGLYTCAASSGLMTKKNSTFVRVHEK

- reduction of sFlt-1 in a single run [1]: 89.9%
- reduction of sFlt-1 in a single run [2]: 86.2%
- sFlt-1 reduction (mean of 10 patient samples) [3]: 88%
- sFlt-1 reduction (median of 10 patient samples) [3]: 92.2%
- PIGF release (free PIGF in serum after against before the column) [4]: 20 fold
- PIGF release (free PIGF in serum after against before the column), median [4]: 14.6 fold
- VEGF release (free VEGF in serum after against before the column) [4]: 9.07 fold
- VEGF release (free VEGF in serum after against before the column), median [4]: 8.74 fold
Molecule: single chain VEGF^165 dimer (scVEGF^165) (from UniProt P49151 27-190) (ligand)

- reduction of sFlt-1 in a single passage [1]: 77.2%
- fold higher affinity compared to moPIGF [5]: 2.6 fold
B1: monomeric wildtype VEGF^165 (moVEGF^165) (ligand, human, UniProt P15692-4 27-191, looked up)
chain: APMAEGGGQNHHEVVKFMDVYQRSYCHPIETLVDIFQEYPDEIEYIFKPSCVPLMRCGGCCNDEGLECVPTEESNITMQIMRIKPHQGQHIGEMSFLQHNKCECRPKKDRARQENPCGPCSERRKHLFVQDPQTCKCSCKNTDSRCKARQLELNERTCRCDKPRR
notes: mature; Expressed from a monomeric construct in HEK293T cells; not shown: N-terminal Strep tag from the expression vector

- reduction of sFlt-1 in a single passage [1]: 46.2%
B2: monomeric PIGF (moPIGF) (ligand, UniProt P49763-2 19-149, looked up, not shown: small tags and cut ends)
chain: LPAVPPQQWALSAGNGSSEVEVVPFQEVWGRSYCRALERLVDVVSEYPSEVEHMFSPSCVSLLRCTGCCGDENLHCVPVETANVTMQLLKIRSGDRPSYVELTFSQHVRCECRPLREKMKPERCGDAVPRR
